Reference: FireProtDB (doi:10.1074/jbc.271.51.32729)

B1: Ribonuclease HI, P0A7Y4 (parent)
chain: MLKQVEIFTDGSCLGNPGPGGYGAILRYRGREKTFSAGYTRTTNNRMELMAAIVALEALKEHCEVILSTDSQYVRQGITQWIHNWKKRGWKTADKKPVKNVDLWQRLDAALGQHQIKWEWVKGHAGHPENERCDELARAAAMNPTLEDTGYQVEV

Variants of: B1
Details: Escherichia coli (strain K12), Thermal, CD, reversible: yes, structure 2RN2, whole UniProt chain shown
[1] = pH 9, 47 °C, glycine-NaOH 50 mM

Variant	ddG of mutation (higher = less stable) (pH 3, 50 °C, glycine-HCl 10 mM) [kcal/mol]	Tm (pH 3, glycine-HCl 10 mM) [°C]	change of melting temperature, mutant - wild type (higher = more stable) (pH 3, glycine-HCl 10 mM) [°C]	unfolding enthalpy (van 't Hoff) (pH 3, glycine-HCl 10 mM) [kcal/mol]	ddG of mutation (higher = less stable) [1] [kcal/mol]	Tm (pH 9, glycine-NaOH 50 mM) [°C]	change of melting temperature, mutant - wild type (higher = more stable) (pH 9, glycine-NaOH 50 mM) [°C]
MLKQVEIFTDGSCLGNPGPGGYGAILRYRGREKTFSAGYTRTTNNRMELMAAIVALEALKEHCEVILSTESQYVRQGITQWIHNWKKRGWKTADKKPVKNVDLWQRLDAALGQHQIKWEWVKGHAGHPENERCDELARAAAMNPTLEDTGYQVEV [D70E]	-0.5	51.8	1.8	90.4	-0.1	–	–
MLKQVEIFTDGSCLGNPGPGGYGAILRYRGREKTFSAGYTRTTNNRMELMAAIVALEALKEHCEVILSTNSQYVRQGITQWIHNWKKRGWKTADKKPVKNVDLWQRLDAALGQHQIKWEWVKGHAGHPENERCDELARAAAMNPTLEDTGYQVEV [D70N]	0.3	48.8	-1.2	110	–	52.5	5.5
MLKQVEIFTDGSCLGNPGPGGYGAILRYRGREKTFSAGYTRTTNNRMELMAAIVALEALKEHCEVILSTASQYVRQGITQWIHNWKKRGWKTADKKPVKNVDLWQRLDAALGQHQIKWEWVKGHAGHPENERCDELARAAAMNPTLEDTGYQVEV [D70A]	0.1	49.7	-0.3	85.5	-1.1	50.8	3.8
MLKQVEIFTDGSCLGNPGPGGYGAILRYRGREKTFSAGYTRTTNNRMELMAAIVALEALKEHCEVILSTDSQYVRQGITQWIHNWKKRGWKTADKKPVKNVDLWQRLDAALGQHQIKWEWVKGHAGHPENERCNELARAAAMNPTLEDTGYQVEV [D134N]	0.1	49.7	-0.3	110	-1.8	53.4	6.4
MLKQVEIFTDGSCLGNPGPGGYGAILRYRGREKTFSAGYTRTTNNRMELMAAIVALEALKEHCEVILSTDSQYVRQGITQWIHNWKKRGWKTADKKPVKNVDLWQRLDAALGQHQIKWEWVKGHAGHPENERCAELARAAAMNPTLEDTGYQVEV [D134A]	-0.8	52.9	2.9	105	-2	–	–
MLKQVEIFTDGSCLGNPGPGGYGAILRYRGREKTFSAGYTRTTNNRMALMAAIVALEALKEHCEVILSTDSQYVRQGITQWIHNWKKRGWKTADKKPVKNVDLWQRLDAALGQHQIKWEWVKGHAGHPENERCDELARAAAMNPTLEDTGYQVEV [E48A]	0.1	49.8	-0.2	91.6	0.3	46	-1
MLKQVEIFTDGSCLGNPGPGGYGAILRYRGREKTFSAGYTRTTNNRMQLMAAIVALEALKEHCEVILSTDSQYVRQGITQWIHNWKKRGWKTADKKPVKNVDLWQRLDAALGQHQIKWEWVKGHAGHPENERCDELARAAAMNPTLEDTGYQVEV [E48Q]	0.1	49.8	-0.2	99.1	–	48	1
MLKQVEIFTDGSCLGNPGPGGYGAILRYRGREKTFSAGYTRTTNNRMDLMAAIVALEALKEHCEVILSTDSQYVRQGITQWIHNWKKRGWKTADKKPVKNVDLWQRLDAALGQHQIKWEWVKGHAGHPENERCDELARAAAMNPTLEDTGYQVEV [E48D]	-0.2	50.8	0.8	103	0.2	46.2	-0.8
MLKQVEIFTEGSCLGNPGPGGYGAILRYRGREKTFSAGYTRTTNNRMELMAAIVALEALKEHCEVILSTDSQYVRQGITQWIHNWKKRGWKTADKKPVKNVDLWQRLDAALGQHQIKWEWVKGHAGHPENERCDELARAAAMNPTLEDTGYQVEV [D10E]	-1.1	53.8	3.8	97.7	-1	50.4	3.4
MLKQVEIFTSGSCLGNPGPGGYGAILRYRGREKTFSAGYTRTTNNRMELMAAIVALEALKEHCEVILSTDSQYVRQGITQWIHNWKKRGWKTADKKPVKNVDLWQRLDAALGQHQIKWEWVKGHAGHPENERCDELARAAAMNPTLEDTGYQVEV [D10S]	-0.7	52.4	2.4	121	-2.7	56.2	9.2
MLKQVEIFTAGSCLGNPGPGGYGAILRYRGREKTFSAGYTRTTNNRMELMAAIVALEALKEHCEVILSTDSQYVRQGITQWIHNWKKRGWKTADKKPVKNVDLWQRLDAALGQHQIKWEWVKGHAGHPENERCDELARAAAMNPTLEDTGYQVEV [D10A]	-2.4	58.1	8.1	105	–	–	–
MLKQVEIFTHGSCLGNPGPGGYGAILRYRGREKTFSAGYTRTTNNRMELMAAIVALEALKEHCEVILSTDSQYVRQGITQWIHNWKKRGWKTADKKPVKNVDLWQRLDAALGQHQIKWEWVKGHAGHPENERCDELARAAAMNPTLEDTGYQVEV [D10H]	-0.4	51.5	1.5	115	-2.4	–	–
MLKQVEIFTNGSCLGNPGPGGYGAILRYRGREKTFSAGYTRTTNNRMELMAAIVALEALKEHCEVILSTDSQYVRQGITQWIHNWKKRGWKTADKKPVKNVDLWQRLDAALGQHQIKWEWVKGHAGHPENERCDELARAAAMNPTLEDTGYQVEV [D10N]	0.7	47.4	-2.6	90.5	-2	53.8	6.8
